{"source": "patent US20200207850A1", "about": "(MacroGenics, published 2020)", "binders": {"B1": {"name": "CD3 mAb 2/CD8 mAb 1/B7-H3 mAb 1 Tri-Specific Binding Molecule (other)", "chain 1": "DVQINQSPSFLAASPGETITINCRTSRSISQYLAWYQEKPGKTNKLLIYSGSTLQSGIPSRFSGSGSGTDFTLTISGLEPEDFAMYYCQQHNENPLTFGAGTKLELRGGGSGGGGEVQLVESGGGLVQPGGSLRLSCAASGFTFSTYAMNWVRQAPGKGLEWVGRIRSKYNNYATYYADSVKGRFTISRDDSKNSLYLQMNSLKTEDTAVYYCVRHGNFGNSYVSWFAYWGQGTLVTVSSGGCGGGEVAALEKEVAALEKEVAALEKEVAALEKGGGDKTHTCPPCPAPEAAGGPSVFLFPPKPKDTLMISRTPEVTCVVVDVSHEDPEVKFNWYVDGVEVHNAKTKPREEQYNSTYRVVSVLTVLHQDWLNGKEYKCKVSNKALPAPIEKTISKAKGQPREPQVYTLPPSREEMTKNQVSLWCLVKGFYPSDIAVEWESNGQPENNYKTTPPVLDSDGSFFLYSKLTVDKSRWQQGNVFSCSVMHEALHNHYTQKSLSLSPGK", "chain 2": "QAVVTQEPSLTVSPGGTVTLTCRSSTGAVTTSNYANWVQQKPGQAPRGLIGGTNKRAPWTPARFSGSLLGGKAALTITGAQAEDEADYYCALWYSNLWVFGGGTKLTVLGGGGSGGGGEVQLQQSGAELVKPGASVKLSCTASGFNIKDTYIHFVRQRPEQGLEWIGRIDPANDNTLYASKFQGKATITADTSSNTAYMHLCSLTSGDTAVYYCGRGYGYYVFDHWGQGTTLTVSSGGCGGGKVAALKEKVAALKEKVAALKEKVAALKE", "heavy": "QVQLVQSGAEVKKPGASVKVSCKASGYTFTSYWMQWVRQAPGQGLEWMGTIYPGDGDTRYTQKFKGRVTITADKSTSTAYMELSSLRSEDTAVYYCARRGIPRLWYFDVWGQGTTVTVSSASTKGPSVFPLAPSSKSTSGGTAALGCLVKDYFPEPVTVSWNSGALTSGVHTFPAVLQSSGLYSLSSVVTVPSSSLGTQTYICNVNHKPSNTKVDKRVEPKSCDKTHTCPPCPAPEAAGGPSVFLFPPKPKDTLMISRTPEVTCVVVDVSHEDPEVKFNWYVDGVEVHNAKTKPREEQYNSTYRVVSVLTVLHQDWLNGKEYKCKVSNKALPAPIEKTISKAKGQPREPQVYTLPPSREEMTKNQVSLSCAVKGFYPSDIAVEWESNGQPENNYKTTPPVLDSDGSFFLVSKLTVDKSRWQQGNVFSCSVMHEALHNRYTQKSLSLSPGK", "light": "not shown", "notes": "Site A CD3, Site B CD8, Site C B7-H3"}, "B2": {"name": "5T4 mAb 1/CD3 mAb 2 Fast/CD8 mAb 1 Tri-Specific Binding Molecule (other)", "chain 1": "DIQMTQSPSSLSASVGDRVTITCRASQGISNYLAWFQQKPGKAPKSLIYRANRLQSGVPSRFSGSGSGTDFTLTISSLQPEDVATYYCLQYDDFPWTFGQGTKLEIKGGGSGGGGEVQLVESGGGLVQPGGSLRLSCAASGFTFSTYAMNWVRQAPGKGLEWVGRIRSKYNNYATYYADSVKGRFTISRDDSKNSLYLQMNSLKTEDTAVYYCVRHKNFGNSYVTWFAYWGQGTLVTVSSASTKGEVAACEKEVAALEKEVAALEKEVAALEKGGGDKTHTCPPCPAPEAAGGPSVFLFPPKPKDTLMISRTPEVTCVVVDVSHEDPEVKFNWYVDGVEVHNAKTKPREEQYNSTYRVVSVLTVLHQDWLNGKEYKCKVSNKALPAPIEKTISKAKGQPREPQVYTLPPSREEMTKNQVSLWCLVKGFYPSDIAVEWESNGQPENNYKTTPPVLDSDGSFFLYSKLTVDKSRWQQGNVFSCSVMHEALHNHYTQKSLSLSPGK", "chain 2": "QAVVTQEPSLTVSPGGTVTLTCRSSTGAVTTSNYANWVQQKPGQAPRGLIGGTNKRAPWTPARFSGSLLGGKAALTITGAQAEDEADYYCALWYSNLWVFGGGTKLTVLGGGGSGGGGQVQLVQSGAEVKKPGASVKVSCKASGYTFTSFWMHWVRQAPGQGLEWMGRIDPNRGGTEYNEKAKSRVTMTADKSTSTAYMELSSLRSEDTAVYYCAGGNPYYPMDYWGQGTTVTVSSASTKGKVAACKEKVAALKEKVAALKEKVAALKE", "heavy": "EVQLQQSGAELVKPGASVKLSCTASGFNIKDTYIHFVRQRPEQGLEWIGRIDPANDNTLYASKFQGKATITADTSSNTAYMHLCSLTSGDTAVYYCGRGYGYYVFDHWGQGTTLTVSSASTKGPSVFPLAPSSKSTSGGTAALGCLVKDYFPEPVTVSWNSGALTSGVHTFPAVLQSSGLYSLSSVVTVPSSSLGTQTYICNVNHKPSNTKVDKRVEPKSCDKTHTCPPCPAPEAAGGPSVFLFPPKPKDTLMISRTPEVTCVVVDVSHEDPEVKFNWYVDGVEVHNAKTKPREEQYNSTYRVVSVLTVLHQDWLNGKEYKCKVSNKALPAPIEKTISKAKGQPREPQVYTLPPSREEMTKNQVSLSCAVKGFYPSDIAVEWESNGQPENNYKTTPPVLDSDGSFFLVSKLTVDKSRWQQGNVFSCSVMHEALHNRYTQKSLSLSPGK", "light": "DVQINQSPSFLAASPGETITINCRTSRSISQYLAWYQEKPGKTNKLLIYSGSTLQSGIPSRFSGSGSGTDFTLTISGLEPEDFAMYYCQQHNENPLTFGAGTKLELRRTVAAPSVFIFPPSDEQLKSGTASVVCLLNNFYPREAKVQWKVDNALQSGNSQESVTEQDSKDSTYSLSSTLTLSKADYEKHKVYACEVTHQGLSSPVTKSFNRGEC"}, "B3": {"name": "B7-H3 mAb 1/CD3 mAb 2/CD8 mAb 2 Tri-Specific Binding Molecule (other)", "chain 1": "DIQMTQSPSSLSASVGDRVTITCRASQDISNYLNWYQQKPGKAPKLLIYYTSRLHSGVPSRFSGSGSGTDFTLTISSLQPEDIATYYCQQGNTLPPTFGGGTKLEIKGGGSGGGGEVQLVESGGGLVQPGGSLRLSCAASGFTFSTYAMNWVRQAPGKGLEWVGRIRSKYNNYATYYADSVKDRFTISRDDSKNSLYLQMNSLKTEDTAVYYCVRHGNFGNSYVSWFAYWGQGTLVTVSSGGCGGGEVAALEKEVAALEKEVAALEKEVAALEKGGGDKTHTCPPCPAPEAAGGPSVFLFPPKPKDTLMISRTPEVTCVVVDVSHEDPEVKFNWYVDGVEVHNAKTKPREEQYNSTYRVVSVLTVLHQDWLNGKEYKCKVSNKALPAPIEKTISKAKGQPREPQVYTLPPSREEMTKNQVSLWCLVKGFYPSDIAVEWESNGQPENNYKTTPPVLDSDGSFFLYSKLTVDKSRWQQGNVFSCSVMHEALHNHYTQKSLSLSPGK", "chain 2": "QAVVTQEPSLTVSPGGTVTLTCRSSTGAVTTSNYANWVQQKPGQAPRGLIGGTNKRAPWTPARFSGSLLGGKAALTITGAQAEDEADYYCALWYSNLWVFGGGTKLTVLGGGGSGGGGQVQLVQSGAEVKKPGASVKVSCKASGYTFTSYWMQWVRQAPGQGLEWMGTIYPGDGDTRYTQKFKGRVTITADKSTSTAYMELSSLRSEDTAVYYCARRGIPRLWYFDVWGQGTTVTVSSGGCGGGKVAALKEKVAALKEKVAALKEKVAALKE", "heavy": "not shown", "light": "not shown", "notes": "Site A B7-H3, Site B CD3, Site C CD8 (TRX2)"}}, "key": {"[1]": {"target": "T1, B7-H3 on A498 and JIMT-1 target cells (UniProt Q5ZPR3 29-534, limits assumed)", "T1 sequence (looked up)": "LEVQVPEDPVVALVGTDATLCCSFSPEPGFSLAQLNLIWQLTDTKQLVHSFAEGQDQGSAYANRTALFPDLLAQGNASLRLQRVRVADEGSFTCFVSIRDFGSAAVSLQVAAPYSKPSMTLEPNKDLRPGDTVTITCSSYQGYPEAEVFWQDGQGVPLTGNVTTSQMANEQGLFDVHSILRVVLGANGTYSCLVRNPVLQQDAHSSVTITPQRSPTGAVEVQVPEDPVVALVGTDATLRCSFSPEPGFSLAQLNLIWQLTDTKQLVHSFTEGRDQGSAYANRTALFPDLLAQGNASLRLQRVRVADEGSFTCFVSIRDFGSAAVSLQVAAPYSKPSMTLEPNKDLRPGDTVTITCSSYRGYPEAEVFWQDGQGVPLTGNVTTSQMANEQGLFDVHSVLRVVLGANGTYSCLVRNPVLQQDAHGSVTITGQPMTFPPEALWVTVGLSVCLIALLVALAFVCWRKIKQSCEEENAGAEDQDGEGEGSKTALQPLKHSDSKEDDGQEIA", "experiment": "cell-based or functional assay"}, "[2]": {"target": "T2, CD8 on human T cells (PBMC) (human, UniProt P01732 22-235)", "T2 construct": "whole, on cells; The CD8+ (CD5+ CD4-) cells also carry CD3; also called CD5+ CD4- gated PBMC; CD8+ T cells", "T2 sequence (P01732 22-235)": "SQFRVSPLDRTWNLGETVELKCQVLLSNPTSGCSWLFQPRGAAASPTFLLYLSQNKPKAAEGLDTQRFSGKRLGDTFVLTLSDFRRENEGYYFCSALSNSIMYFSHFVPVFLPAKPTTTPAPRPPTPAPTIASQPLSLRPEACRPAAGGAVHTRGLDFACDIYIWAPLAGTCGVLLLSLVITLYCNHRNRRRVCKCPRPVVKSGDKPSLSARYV", "experiment": "flow cytometry, binding to human CD5+/CD4- cells (bear CD8 and CD3) (MFI)"}, "[3]": {"target": "T2, CD8 on human T cells (PBMC)", "experiment": "flow cytometry on human PBMC gated CD5+/CD4- (cells carry CD8 and CD3), detection with anti-human Fc-PE"}, "[4]": {"target": "T3, 5T4 on JIMT-1 target cells (UniProt Q13641 32-420, limits assumed)", "T3 sequence (looked up)": "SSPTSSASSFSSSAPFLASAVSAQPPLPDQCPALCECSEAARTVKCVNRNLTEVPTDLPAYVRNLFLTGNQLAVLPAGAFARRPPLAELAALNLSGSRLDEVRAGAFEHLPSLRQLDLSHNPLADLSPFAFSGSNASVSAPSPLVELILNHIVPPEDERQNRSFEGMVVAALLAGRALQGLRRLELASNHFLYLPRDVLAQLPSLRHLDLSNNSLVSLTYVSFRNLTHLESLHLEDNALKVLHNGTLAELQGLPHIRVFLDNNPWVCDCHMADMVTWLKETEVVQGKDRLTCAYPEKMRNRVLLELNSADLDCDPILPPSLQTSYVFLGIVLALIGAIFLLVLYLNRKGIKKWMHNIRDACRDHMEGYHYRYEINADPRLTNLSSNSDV", "experiment": "cell-based or functional assay"}, "[5]": {"target": "T2, CD8 on human T cells (PBMC)", "experiment": "flow cytometry on human PBMC, CD5+/CD4- gated cells (bear CD8 and CD3), detection PE anti-human Fc (MFI)", "protocol": "50 μL (4×10⁶ cells/mL) of well-mixed cells in FACS buffer containing 0.01% sodium azide were then added into corresponding wells and mixed thoroughly using a pipette. The plate was incubated in the dark for about 45 minutes at 2-8° C. At the end of the incubation, the cells were washed twice by adding 300 μL of FACS buffer to each well, centrifuging the plate at 1,200 rpm for 5 minutes, and discarding the supernatant. The cell pellets were re-suspended in 100 μL mixture of PE-conjugated goat anti-Human Fcγ 1:500 diluted, CD5-APC and CD4-PerCP5.5 in FACS buffer containing 0.01% sodium azide, and incubated in the dark for about 45 minutes at 2-8° C. At the end of the incubation, the cells were washed, re-suspended with FACS buffer, and analyzed with a BD Caliber flow cytometer. Cells were gated to CD5⁺ CD4⁺ (FIG. 9A) or CD5⁺ CD4⁻ (FIG. 9B)."}}, "data": [{"binder": "B1", "values": [{"measurement": "EC50 (nM) of killing, CD4+ effector cells, JIMT1-luc target cells, E:T 5:1", "setting": "[1]", "value": 0.105, "unit": "nM"}, {"measurement": "EC50 (nM) of killing, CD8+ effector cells, JIMT1-luc target cells, E:T 5:1", "setting": "[1]", "value": 0.0053, "unit": "nM"}, {"measurement": "EC50 (nM) of killing, PanT effector cells, JIMT1-luc target cells, E:T 5:1", "setting": "[1]", "value": 0.0113, "unit": "nM"}, {"measurement": "EC50 (read off the curve)", "setting": "[2]", "value": "~2", "unit": "nM"}]}, {"binder": "B2", "values": [{"measurement": "EC50 (read off the curve)", "setting": "[3]", "value": "~0.5", "unit": "nM"}, {"measurement": "EC50 (nM) of killing, CD4+ effector cells, JIMT1-luc target cells, E:T 5:1", "setting": "[4]", "value": 0.16, "unit": "nM"}, {"measurement": "EC50 (nM) of killing, CD8+ effector cells, JIMT1-luc target cells, E:T 5:1", "setting": "[4]", "value": 0.0021, "unit": "nM"}, {"measurement": "EC50 (nM) of killing, PanT effector cells, JIMT1-luc target cells, E:T 5:1", "setting": "[4]", "value": 0.0028, "unit": "nM"}]}, {"binder": "B3", "values": [{"measurement": "EC50 (nM) of killing, CD4+ effector cells, JIMT1-luc target cells, E:T 5:1", "setting": "[1]", "value": 0.314, "unit": "nM"}, {"measurement": "EC50 (nM) of killing, CD8+ effector cells, JIMT1-luc target cells, E:T 5:1", "setting": "[1]", "value": 0.0051, "unit": "nM"}, {"measurement": "EC50 (nM) of killing, PanT effector cells, JIMT1-luc target cells, E:T 5:1", "setting": "[1]", "value": 0.0058, "unit": "nM"}, {"measurement": "EC50 (read off the curve)", "setting": "[5]", "value": "~1", "unit": "nM"}]}]}
